Source: the DeepSol protein solubility set

Assay: soluble on expression in E. coli; label from the status in PepcDB or PDB records

Q: With “MSLNKPFERRSLLRGAGALTAASLAPWAAGCAADDDDALTFFFAANPDELRPRMRVVNEFQRRYPDIKVRALLSGPGVMQQLATFCAGGKCPDVLMAWELTYAELADRGVLLDLNTLLARDQAFAAELKSDSIGALYETFTFNGGQYAFPEQWSGNFLFYNKQLFDDAGVPPPPGSWERPWSFAEFLDAAQALTKQGRSGRDRQWGFVNAWVSFYAAGLFAMNNGVPWSVPRMNPTHLNFDHDGFLEAVQFYADLTNKHKVAPSAAEQQSMSTADLFSVGKAGIALAGHWRYQTFDRADGLDFDVAPLPIGPRGRAACSDIGVTGLAIAATSRRKDQAWEFVKFATGPVGQALIGESRLFVPVLRSAINSHGFANAHRRVGNLAVLSEGPAYSEGLPVTPAWEKIAALMDRYFGPVLRGSRPATSLTGLSQAVDEVLRNEGHHHHHH” as the sequence, how does the “soluble on expression in E. coli” value read?
A: The value was “not soluble”.

Q: With “QTSGFSVTSGPMDVDVVTSIPFAMVDEINESSPAAEGGLQLGDQVLKFGNVEGGDNLLQRLAAEAQSNQGQAVSVQVMRQ” as the sequence, how does the “soluble on expression in E. coli” value read?
A: The value was “soluble”.

Q: Which “soluble on expression in E. coli” value does the source give for “TLTVQARQLLSGIVQQQNDLLRAIEAQQHLLQLTVWGIKQLQARSGGRGGWMEWDREINNYTSLIHSLIEESQNQQEKNEQELLEL” here?
A: Its value is “soluble”.

Q: Which “soluble on expression in E. coli” value does the source give for “MGSDKIHHHHHHMASSTSIDFKGNVTGALADRQLRANFRSALDGLRAKRLNVFSDAEELDRMRVQGEANKRRALAQLPALLEQLEHRCTANGIIVHWAETTDEANRIVLDIMRSHDATTLVKGKSMVSEEMHLNAYLERHGIEALETDLGEFIIQLNHEPPSHIIVPAVHKNRQQVARIFHEKLGEPYVDEVEKLNAIARRTLREKFRTAQVGLSGVNFAIAETGTLLLVENEGNGRMCTTVPPVHIALMGLEKVVERLEDVPPLLRLLTGSATGQLVTTYVNCITSPRKPGEKDGPREVHLVILDNGRSRMLADPQLSRTLQCIRCGTCLNHCPVYVRIGGHAYDSVYPGPIGKILTPQIDGLARKGVLATASSLCNACEEVCPVRIPIPALLRRLRRESYAPPGEGVVKGAGSKRTLFEKAVWKGWEMVYSHPALYSFVLKVLGRFGHRLPKVGPLKAWTSVRTAPRFASTSLHELTRQEGIRHE” here?
A: Its value is “not soluble”.

Q: For “MSLNRNNPLEVLGHVSWLWASSPLHRNWPVSLFAINVLPAIRANQYALLTRDNYPVAYCSWANLSLENEIKYLNDVTSLVAEDWTSGDRKWFIVWIAPFGDNGALYKYMRKKFPDELFRAIRVDPKTHVGKVSEFHGGKIDKQLANKIFKQYHHELITEVKNKSDFNFSLTGEGHHHHHH”, which “soluble on expression in E. coli” value is on record?
A: Its value is “soluble”.

Q: With “MSLNRGIGVVTLSTLLASPSALARENPPAEDEPAALEALVVTGEKRERSLKDTASSVSLTSARDIDRKQTGNASVAEVINGSPNVVYTDSVGAPIIRGQDTQGPNNGQNVFWGGTVPRATINLDGHYLNYNEMFFGATSVWDVDSIEVFRGPQTTSQGANAIAGAIIVNTKDPTFSPEAAYQAEIGSYHSRRSSIAVSGPLAQDFAGRLAVDYAGRDTFIDYDNPKFQDSGTDQDFRALNARAKLLWLPSGIPGLESKFTFSHNDNNRPTQEAATRPFDKLDHRSTTMPSWEQDTNTSILDVAYDLDNGIRLFNQAQYSLSSVHRTTGAGGEGDADIRQKNASNESRISFGEQEDRISGMGGVYYARTRTDETLHLRGLSAFDDTKKNLGVFGELNYRLSDRWTLTTGLRYQEDRIERSGNSVLAPRPLDYQKTFSAFLPKVSLAFAATPDWTVGGLVSRGYNPGGVSLNLTTRNWAYFKEETIWNYELFTRASLLDGRLLLNGNLFFMDFKDAQYNIPVVVSPGVAQSYTINAEKAHAYGMELDLDYRLRDDLRLKASAGVLRTRIDEMSGNTGYEHNEFARSPGYTLSFGPSWDVTERLNLNAQVRYLDGYYSDTANTKAYSIKAYTLTDARASYRFNDQVQLYGYVKNVFDDRSPTYMQENRGIGGIEASMTQPRTLGIGIKGTFEGHHHHHH” as the sequence, how does the “soluble on expression in E. coli” value read?
A: Its value is “not soluble”.

Q: For “VRILVTGGVRSGKSTHAEALLGDAADVVYVAPGRPAAGSDPDWDARVALHRARRPPTWLTVETADVATALSEARSPVLVDCLGTWLTAIMDGEALWSAATADVYAVLEARLDGLCAALTGLPTAIVVTNEVGLGVVPSHSSGVLFRDLLGTINRRVAAVCDEVHLVIAGRVLKL”, which “soluble on expression in E. coli” value is on record?
A: The value was “soluble”.

Q: Which “soluble on expression in E. coli” value does the source give for “MGSDKIHHHHHHMASSENTKNGNGGTLGFEAELFKAADKLRGNMEPSDYKHVALGLIFLKYISDAFEARHKALLAEDVRAAEDKDEYLADNVFWVPKEARWSHLQANAKLPAIGTLIDDAMRAIEKDNESLKGVLPKDYARPALNKVMLGELIDLISGIALNEEGDRSKDILGRVYEYFLGQFAGAEGKRGGEFYTPRSVVRVLVEMLEPYSGRVYDPCCGSGGMFVQSEKFVHEHGGRIGDIAIYGQESNYTTWRLAKMNLAVRGIDSDIRWNNEGSFHKDELRDLKADYVLANPPFNISDWGGDRLREDVRWKFGAPPVGNANYAWLQHIFHHLAPNGTAGVVLANGSMSSNQSGEGEIRRAMIEADAVDCMVALPGQLFYSTQIPACLWFLARNKNPGGGLRDRRGQVLFIDARKLGVLIDRTRRELNDDDIKRIADSYHAWRGEKEAGEYADVLGFCKSASLDEIRKHGHVLTPGRYVGAEAQADDGEPFDEVMRRLSAQWRAQQLEGQRVDDAIERNLRELGYGQ” here?
A: The value was “not soluble”.

Q: Which “soluble on expression in E. coli” value does the source give for “GPGSMMNLAPDTITIGAQRNTELLLLEYLRSTNPHIHALWQRHPNKDNDASSSSAASSPSKDTRGASGSDVGDANASSSSAASALRESFDYTEPRLYRAAHVHFLMENLSVAPQGFSSLYPSRPWIVYWALQAADVLNSMESEVLHRTPPSAIVAFLHSCLSVDHTCQAEVNNRLAAAATSARGAPEGKDPHVTGTPLESSTTSVTLERDSADATSATLMPPVEDAAEVAEGPSRPVMGFAGGATHQEPHIASSYAACCALAMLSWYGDGAPLRQLPRAAIKRWLLTLRNEDGSFRVHGGGESDIRASYCAAVITTLLGLDDPTTFDGEAGRCEFVDDVRDVPVLTLQTARFVAACQTHEGGFTCSPTASEAHGAYTQCGLAALLLMKQPHMVHQASLRRWLAARQLNYEGGFNGRTNKLVDSCYSHWIGASHVLLRTVEAYTKCFTEVPTTHSRNGDGTGGCEDGYREDVDCTPSARCLRAREVVLLDHAQLLDAKMIHASADDAWDRAESAHLTRLGVVDQFLGADDAVLRSAEEKRTAVTALYERLLESRLAAVRSCDGNGDAAAGDVQGSLEAWRARQAFLYADVGDFYFNQRKLQDYVLRCCQDSEIGGLMDKPQTAHDGYHTCYSLSGLSAAQNLQYRTHVTAADAAYPSTYLERAFARSYLPGRESGSTSGNEEGSCGVVLGLPNTSAAAESMLLRTTSPIFNIHQSRVLSALRAWSVKAFV” here?
A: Its value is “not soluble”.

Q: For “MKNVGDLMQRLQKMMPAHITPAFKTGEELLAWQKEQGEIRAAALARENRAMKMQRTFNRSGIRPLHQNCSFDNYRVECDGQMNALSKARQYVDEFDGNIASFVFSGKPGTGKNHLAAAICNELLLRGKSVLIITVADIMSAMKDTFSNRETSEEQLLNDLSNVDLLVIDEIGVQTESRYEKVIINQIVDRRSSSKRPTGMLTNSNMEEMTKMLGERVMDRMRLGNSLWVNFTWDSYRSRVTGKEYLEHHHHHH”, which “soluble on expression in E. coli” value is on record?
A: The value was “soluble”.

Q: Which “soluble on expression in E. coli” value does the source give for “MANGTVKIAEQSGVLPIAGDKIVLITARGSGRWIIPKGYIEKGMSPAESAAKEAWEEAGIVGSVRHEEIGTYSYRRPSGIFSVRIYPLEVESLLEQWDEMHVRQRRLVTPSEAIEMICLKELRSLITDYLIKRFDFLEHHHHHH” here?
A: The value was “not soluble”.

Q: For “MGSDKIHHHHHHMADMTDQLPEVRKSHPYVMYEMMKDIPNGIDRTLSSMQNADLSFIGDDLIFLGNGTAYHSAYVGSQILDRVSKRHAVVQAYEYLNYMQSNAATIAISHTGKTKSTVDAVIKARKTAKTAGITHYADSPLYNSVDYPIAIADEDKSLCNTKAFFNNAFASLYIADYYGNLSYDMKNLRSEIAKHVGKDDPEMRSAAEELDQIDDIFVLGSGFNFPVAREAAQKIKEATHIHAEGIEFEEFNHGCTAVMDENTLVILIEGEKDRARGDQIARASRYVGSKTLAINGVGDISVYNDPQDDLSAAFLNTLDLYYLAYYLAVRRNINPDMLRFEDRRYRDYDSVVFPPGEH”, which “soluble on expression in E. coli” value is on record?
A: The value was “not soluble”.

Q: With “MSNKNYVFEEAKESLSSILFNGDSDRTEAGFFDGSVESWNDEDMIDGAKWVDRLVSEMTKAINIDDMRRRVAVILEALESIIKKNTNASKKLEYASMKESLQSLINDNQILKRVIANQHQRSSENEEKAKQVLHLRGVVGQYQEQVHKLELSNYAMKLHLQRSQQQQTSFSGNLPPDIY” as the sequence, how does the “soluble on expression in E. coli” value read?
A: The value was “soluble”.

Q: Which “soluble on expression in E. coli” value does the source give for “MASSAVSLQSISMTTLNNLSCNQQFHRSSLLGSSKSFQNLGISSNGSDFSYPSSFTAKKNLTASRALSQNGNIENPRPSKVQELSVYEINELDRHSPKILKNAFSLMFGLGDLVPFTNKLYTGDLKKRVGITAGLCVVIEHVPEKKGERFEATYSFYFGDYGHLSVQGPYLTYEDSFLAITGGAGIFEGAYGQVKLQQLVYPTKLFYTFYLKGLANDLPLELTGTPVPPSKDIEPAPEAKALEPSGVISNYTN” here?
A: The value was “soluble”.

Q: With “MPENYTPAAAATGTWTEEEIRHQPRAWIRSLTNIDALRSALNNFLEPLLRKENLRIILTGAGTSAFIGDIIAPWLASHTGKNFSAVPTTDLVTNPMDYLNPAHPLLLISFGRSGNSPESVAAVELANQFVPECYHLPITCNEAGALYQNAINSDNAFALLMPAETHDRGFAMTSSITTMMASCLAVFAPETINSQTFRDVADRCQAILTSLGDFSEGVFGYAPWKRIVYLGSGGLQGAARESALKVLELTAGKLAAFYDSPTGFRHGPKSLVDDETLVVVFVSSHPYTRQYDLDLLAELRRDNQAMRVIAIAAESSDIVAAGPHIILPPSRHFIDVEQAFCFLMYAQTFALMQSLHMGNTPDTPSASGTVNRVVQGVIIHPWQA” as the sequence, how does the “soluble on expression in E. coli” value read?
A: The value was “soluble”.

Q: Which “soluble on expression in E. coli” value does the source give for “MTPDLKTSPPPATLFSEDAEAIAKYLDESAKNGRDSGKNKSTQIRRFYDELVGWQERIGTDEQKFRDYAAFIHMLNAKAAYAQGRNLVTREFVQWLRDCIKQIDGPRTLNHFRLHFEAMIGFLKAIRG” here?
A: Its value is “not soluble”.

Q: With “MVQWSPFVMSFKKKYPWIQLAGHAGSFKAAANGRILKKHCESEQRCLDRLMADVLRPFVPAYHGDVVKDGERYNQMDDLLADFDSPCVMDCKMGVRTYLEEELTKARKKPSLRKDMYQKMVEVDPEAPTEEEKAQRAVTKPRYMQWRETISSTATLGFRIEGIKKEDGSVNRDFKKTKTREQVTEAFREFTKGNQNILIAYRDRLKAIRATLEISPFFKCHEVIGSSLLFIHDKKEQAKVWMIDFGKTTPLPEGQTLQHDVPWQEGNREDGYLSGLDNLIDILTEMSQG” as the sequence, how does the “soluble on expression in E. coli” value read?
A: The value was “soluble”.

Q: Which “soluble on expression in E. coli” value does the source give for “MAFSRTHSLLARAGSTSTYKRVWRYWYPLMTRGLGNDEIVFINWAYEEDPPMDLPLEASDEPNRAHINLYHRTATQVDLGGKQVLEVSCGHGGGASYLTRTLHPASYTGLDLNQAGIKLCKKRHRLPGLDFVRGDAENLPFDDESFDVVLNVEASHCYPHFRRFLAEVVRVLRPGGYFPYADLRPNNEIAAWEADLAATPLRQLSQRQINAEVLRGIGNNSQKSRDLVDRHLPAFLRFAGREFIGVQGTQLSRYLEGGELSYRMYCFTKD” here?
A: The value was “not soluble”.

Q: For “YYPKIAEEVYLATLDNGMSLSIIKKKGFIEKAAFLSTNFGALDNRFYIDGKLQTYPAGIAHFLEHKLFEDDQGRDVTLDFVKLGADVNAFTTLDRTTYYFSTIDHFEESLELLLKFTSEFTSSEDTVNHEKRIIEQEINMYQDDPDYRVYLGCLQSLYPNTILGQDIAGSIDSIKKITTKDLKNNFDYFYRPENCHLVLIGNFDIEQIYRFVKETRSEFTISHKTVEK”, which “soluble on expression in E. coli” value is on record?
A: The value was “not soluble”.
